# Experimental data reported in patent US8986655.
# Target: prostate-specific membrane antigen (PSMA), dimeric isoform (UniProt Q04609)
# Assay: phage-displayed ELISA on 1 µg/mL PSMA dimer, HRP activity
# Chain of prostate-specific membrane antigen (PSMA), dimeric isoform (Q04609 44-750): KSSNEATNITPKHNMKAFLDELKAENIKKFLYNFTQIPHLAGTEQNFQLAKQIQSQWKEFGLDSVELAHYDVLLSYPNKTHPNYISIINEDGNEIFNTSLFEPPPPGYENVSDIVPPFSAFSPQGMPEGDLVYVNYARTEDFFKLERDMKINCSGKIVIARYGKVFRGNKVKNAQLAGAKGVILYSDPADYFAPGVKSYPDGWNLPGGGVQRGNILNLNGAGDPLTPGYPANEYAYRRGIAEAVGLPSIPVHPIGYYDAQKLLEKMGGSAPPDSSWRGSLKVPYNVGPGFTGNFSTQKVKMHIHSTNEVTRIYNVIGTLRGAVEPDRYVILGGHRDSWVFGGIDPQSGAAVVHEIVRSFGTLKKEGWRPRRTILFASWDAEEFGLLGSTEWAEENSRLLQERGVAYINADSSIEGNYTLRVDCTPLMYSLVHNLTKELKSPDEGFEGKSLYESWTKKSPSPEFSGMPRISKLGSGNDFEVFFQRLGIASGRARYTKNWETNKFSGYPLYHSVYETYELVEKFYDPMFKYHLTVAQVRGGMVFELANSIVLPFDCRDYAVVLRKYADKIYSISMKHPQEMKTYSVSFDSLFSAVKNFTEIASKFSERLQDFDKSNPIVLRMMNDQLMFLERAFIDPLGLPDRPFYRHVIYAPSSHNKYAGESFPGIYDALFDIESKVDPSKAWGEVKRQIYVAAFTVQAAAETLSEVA
substance,measurement,value
"phage-displayed peptide 1, CALCEFLG [SEQ ID NO: 1]",EC50 (read off the curve),200 pM
